From the supplement of paper PMC12764529 come the findings set out here.

± gives the half width of the 95% confidence interval.

A short description of data set [1]: folding stability dG unfold (combined trypsin and chymotrypsin); higher = more stable. A digest of the protocol:
(§1)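 Unfolding free energy was derived, per protease or combined, by relating Bayesian-fitted K50 values from sequencing counts to a sequence-predicted unfolded-state K50 and a shared folded-state K50. The underlying digests exposed cysteine-free mini-proteins under 80 residues, in a PA-tagged cDNA display construct, to trypsin and chymotrypsin at 11 threefold-diluted concentrations and to a no-protease condition. A filter kept only designs with AlphaFold2 dimer inter-PAE above 15.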

Data set [2] can be described thus: folding stability dG unfold from trypsin proteolysis; higher = more stable. The gist of the method:
as §1

Data set [3] can be described thus: folding stability dG unfold from chymotrypsin proteolysis; higher = more stable. A digest of the protocol:
as §1

Regarding “SAGGKEIYKVNKKDFKKILDYLKKKKNAKITIIIKNKPIEIPIKDLEENYKKIKGKPNEPFYLEIEYSAGGS [r16_377_TrMRF]”, the “folding stability dG unfold” value in data set [1] worked out at 2.14 ± 0.077 kcal/mol; in data set [2] it was 1.75 ± 0.087 kcal/mol; in data set [3] it was 2.28 ± 0.034 kcal/mol.

For “SAGGKEKIILIPAKDKEKVLELLKALADEGKTVRIINLKTGKVEEVTVDELLALAEKTNEPILIEVESAGGS [r16_263_TrROS_Hall]”, the “folding stability dG unfold” value is 3.34 ± 0.21 kcal/mol in data set [1], 3.69 ± 0.18 kcal/mol in data set [2] and 2.98 ± 0.11 kcal/mol in data set [3].

Take “SAGGKEKYKVIEIKVKPEDVTAEELQAELEKKGYEIYVDGKKIKPGESVEDLLAKNPNATLTIVVKESAGGS [r8_38_TrROS_Hall]”: the “folding stability dG unfold” value in data set [1] was found to be 1.71 ± 0.2 kcal/mol; in data set [2], 0.925 ± 0.17 kcal/mol; in data set [3] it was 1.94 ± 0.11 kcal/mol.

For the sequence “SAGGKEVKIKIETKTLPNGVKVVKMTVELPDGKTVEMVMVENKKTGKMVMFEVKLDKNGKIVEIKAFPSAGG [r13_323_TrROS_Hall]”, the entries for the “folding stability dG unfold” value in data set [1], in data set [2] and in data set [3] were 3.33 ± 0.41 kcal/mol, 2.66 ± 0.16 kcal/mol and 3.43 ± 0.16 kcal/mol, respectively.

For “SAGGKEVKITIEYDEETKEVRVTIEKDGKEITVTMTAEELKKLLEELEKLPPVVVKDKDGKEKVVLLSAGGS [r8_332_TrROS_Hall]”, the “folding stability dG unfold” value in data set [1] is 0.696 ± 0.13 kcal/mol; in data set [2], 1.14 ± 0.037 kcal/mol; in data set [3], -0.472 ± 0.26 kcal/mol.

As to “SAGGKEVKVIRITMSRDQLRDLIEKLFGKPLSLEEILKKLPPGAKVEIRVEENENGEVTVEIVIVKKPSAGG [r13_869_TrROS_Hall]”, the “folding stability dG unfold” value in data set [1] came out at 3.99 ± 0.26 kcal/mol; in data set [2], 3.2 ± 0.23 kcal/mol; in data set [3] it was 4.14 ± 0.11 kcal/mol.

Regarding “SAGGKEVYKVEIEVRLVKVPPGATVTLEEENGELTLTVTAPPGEEVLVIRIKVEKVKLPKPEKKKKKKSAGG [r13_804_TrROS_Hall]”, the “folding stability dG unfold” value was 2.79 ± 0.45 kcal/mol in data set [1], 2.22 ± 0.27 kcal/mol in data set [2] and 3.45 ± 0.18 kcal/mol in data set [3].

As to “SAGGKIEEILKKLNLKPGEKAKIKDIKIEVKTVTVTEKKYKNGKLVEEKEKTVTVVKIEIKIELEKPKSAGG [r13_482_TrROS_Hall]”, the results for the “folding stability dG unfold” value in data set [1], in data set [2] and in data set [3] were 3.22 ± 0.26 kcal/mol, 2.6 ± 0.18 kcal/mol and 3.97 ± 0.18 kcal/mol, respectively.

For “SAGGKIEELAKEIAQEHNIKSVDVQTTGGYPKVNVRFRNPKEGRMYRIKIHVPPDGNIKISIEPQELSAGGS [r16_433_TrROS]”, the “folding stability dG unfold” value in data set [1] came out at 1.92 ± 0.26 kcal/mol; in data set [2], 1.87 ± 0.034 kcal/mol; in data set [3], 2.08 ± 0.13 kcal/mol.

For “SAGGKIEIHPDTLVVRIEVENKDGSTEEITLELKGLTEEELEDLLKELAAQLPDPDVKVKIVEIRRLPSAGG [r13_29_TrROS_Hall]”, the entries for the “folding stability dG unfold” value in data set [1], in data set [2] and in data set [3] were 2.43 ± 0.13 kcal/mol, 2.63 ± 0.13 kcal/mol and 2.49 ± 0.12 kcal/mol, respectively.

In the case of “SAGGKIIEAIKELLKEGKKLSKEEILKKLKEALRKKAEEEGKPIEEIEITSIHFDKETNEVHIEIKPSAGGS [r16_365_TrROS_Hall]”, the figures for the “folding stability dG unfold” value in data set [1], in data set [2] and in data set [3] were 2.57 ± 0.089 kcal/mol, 2.48 ± 0.12 kcal/mol and 2.63 ± 0.1 kcal/mol, respectively.

As to “SAGGKIKLSPEALKALEEAIKKGDKNKTIFIELPDGSRIEVLPDGRIKVINKNGEEYELSEIKKIYPSAGGS [r16_664_TrROS_Hall]”, the “folding stability dG unfold” value was 2.58 ± 0.22 kcal/mol in data set [1], 2.99 ± 0.2 kcal/mol in data set [2] and 2.31 ± 0.12 kcal/mol in data set [3].

As for “SAGGKILVPLEVLKEIEEAGLVDEVVENPDGPASLTVTSSKPAKLFGKPVIGFVRRGPDGKPVVEIIPSAGG [r13_163_TrMRF]”, the “folding stability dG unfold” value in data set [1] was 0.000122 ± 0.099 kcal/mol; in data set [2] it was -0.215 ± 0.091 kcal/mol; in data set [3], 0.0505 ± 0.13 kcal/mol.

Regarding “SAGGKIPISPEALKALDEALKNGDKGDTIPIQTPDGHYIVITPNGRMRFHNGNEREFPIGKIKAIIWSAGGS [r16_664_TrROS]”, the “folding stability dG unfold” value in data set [1] is 0.156 ± 0.12 kcal/mol; in data set [2] it was -0.149 ± 0.14 kcal/mol; in data set [3], 0.241 ± 0.2 kcal/mol.

Turning to “SAGGKIRIDVQYNKNEGYITIRIRFNGNTREIPIPSPKQSPEDVREEAEEIAKYLQEEYNIKEVEIWSAGGS [r16_249_TrROS]”, the “folding stability dG unfold” value turned out to be 2.36 ± 0.16 kcal/mol in data set [1], 2 ± 0.068 kcal/mol in data set [2] and 2.34 ± 0.11 kcal/mol in data set [3].

Take “SAGGKITITVEYNKETNTVRIKITTEDGKEKELEINLENLTEEELKKLAEEIAKKLNPEKIKKVEIYPSAGG [r13_267_TrROS_Hall]”: the “folding stability dG unfold” value in data set [1] is 2.33 ± 0.13 kcal/mol; in data set [2] it was 1.69 ± 0.11 kcal/mol; in data set [3] it was 2.69 ± 0.12 kcal/mol.

In the case of “SAGGKKEKKLTLLFSDPNGKLSLVIEVYKKKDGSYWAVFYNPETGKKEEYKFKSLEELEEAVKELLKKSAGG [r13_857_TrMRF]”, the figures for the “folding stability dG unfold” value in data set [1], in data set [2] and in data set [3] were 4.27 ± 0.077 kcal/mol, 2.8 ± 0.048 kcal/mol and 4.579 ± 0.045 kcal/mol, respectively.

Regarding “SAGGKKIEIYKLKDALIIKIPEKGLLILLGNDTAIIFKVKSIKNNGKPKIISSKIISLEEILDLIKSSAGGS [r8_174_TrMRF]”, the “folding stability dG unfold” value came to 3.31 ± 0.13 kcal/mol in data set [1], 2.79 ± 0.12 kcal/mol in data set [2] and 3.75 ± 0.047 kcal/mol in data set [3].

With “SAGGKKIIIVIGSPEEVERLKELFPDEEVITLPREALENPEVLKELIKELEEKGIEVEIIIPPGVKPSAGGS [r8_376_TrROS_Hall]”, the figures for the “folding stability dG unfold” value in data set [1], in data set [2] and in data set [3] were 3.73 ± 0.44 kcal/mol, 3.82 ± 0.37 kcal/mol and 1.94 ± 0.26 kcal/mol, respectively.

With “SAGGKKITITLTVKTPEDALAAARELAEALGLKIKKIKKVEVTYDEENNLVTVKVEIEIEPLPEEELSAGGS [r16_155_TrROS_Hall]”, the “folding stability dG unfold” value in data set [1] came to 4.41 ± 0.19 kcal/mol; in data set [2], 4.69 ± 0.33 kcal/mol; in data set [3], 4.27 ± 0.1 kcal/mol.

With “SAGGKKITVTVTRERTEDGTLRVTVTLRDEETGRTLTLTLTVPRENEEEVEEAAKRLAEELAADPELESAGG [r13_968_TrROS_Hall]”, the “folding stability dG unfold” value is 4.42 ± 0.17 kcal/mol in data set [1], 2.82 ± 0.064 kcal/mol in data set [2] and 4.72 ± 0.12 kcal/mol in data set [3].

As to “SAGGKKIVIVAPPGMSPEELAELLKKLFPGLEVEVREVSAEELKKLKPGDEVLVIEVDGRLYAVKIKPSAGG [r13_649_TrROS_Hall]”, the “folding stability dG unfold” value in data set [1] was 3.21 ± 0.12 kcal/mol; in data set [2] it was 2.05 ± 0.11 kcal/mol; in data set [3], 3.67 ± 0.14 kcal/mol.

For the sequence “SAGGKKKITIEVEKKEDGKEVKVKIKVDGKEIEITFPENMSKEELLEAAKKLAEENNIEIEEVEIYPSAGGS [r16_753_TrROS_Hall]”, the “folding stability dG unfold” value in data set [1] turned out to be 1.53 ± 0.15 kcal/mol; in data set [2], 1.24 ± 0.1 kcal/mol; in data set [3], 1.54 ± 0.091 kcal/mol.

In the case of “SAGGKKKKIIIVLSKEEAEKKAEELKKELEKKGIEVEEVKVVEGMSEEEVKELAEKEKKPVIVIEPKSAGGS [r16_94_TrROS_Hall]”, the results for the “folding stability dG unfold” value in data set [1], in data set [2] and in data set [3] were 0.813 ± 0.14 kcal/mol, -0.158 ± 0.077 kcal/mol and 1.27 ± 0.075 kcal/mol, respectively.

On to “SAGGKKKKKKKIEKKVKTVTIKIKAKTKEEAKKALEELLKKKGLEVEIVKIEYDPETKEITVTVKVKPSAGG [r13_567_TrROS_Hall]”, for which the figures for the “folding stability dG unfold” value in data set [1], in data set [2] and in data set [3] were 2.14 ± 0.085 kcal/mol, 1.92 ± 0.044 kcal/mol and 2.32 ± 0.12 kcal/mol, respectively.

Turning to “SAGGKKKKLKIKIVIVAKSKEEAEKLAKELAEKLKELGIKEVEIEVEVIELPPPPPPPKPDSPEYKKKSAGG [r13_6_TrROS_Hall]”, the results for the “folding stability dG unfold” value in data set [1], in data set [2] and in data set [3] were 0.372 ± 0.42 kcal/mol, -0.453 ± 0.34 kcal/mol and -0.131 ± 0.36 kcal/mol, respectively.

With “SAGGKKKKPERVEVTIVLPPEILEAIKAGKPLTKEEIAKLLGLPPGAEIKIERREDGYLVIKITLPKSAGGS [r16_679_TrROS_Hall]”, the “folding stability dG unfold” value in data set [1] was determined as 2.8 ± 0.069 kcal/mol; in data set [2] it was 1.61 ± 0.03 kcal/mol; in data set [3] it was 3.19 ± 0.044 kcal/mol.

Take “SAGGKKKKVKKVKVEVKVTVTLTIKLPKEKIKSKEEAEALAKKLLEELGIEGAKVKIEEKDGYLTLTFSAGG [r13_130_TrROS_Hall]”: the “folding stability dG unfold” value in data set [1] turned out to be 3.85 ± 0.39 kcal/mol; in data set [2], 2.66 ± 0.092 kcal/mol; in data set [3], 4.24 ± 0.2 kcal/mol.

As to “SAGGKKKPKVKTITITLPKKDIKIGDVITAEEIAKLLGLPKNAKIKVVEVKYDKETGEVTIKIEIYESAGGS [r16_165_TrROS_Hall]”, the “folding stability dG unfold” value in data set [1] was found to be 2.96 ± 0.11 kcal/mol; in data set [2] it was 1.98 ± 0.045 kcal/mol; in data set [3], 3.29 ± 0.1 kcal/mol.

For the sequence “SAGGKKKPPKVKIVSIEVEVFKNENGEKFVKVKIKFEKTNKIITITVPPGMTLEELAKKLNIEIEKESAGGS [r16_676_TrROS_Hall]”, the “folding stability dG unfold” value in data set [1] amounted to 2.72 ± 0.088 kcal/mol; in data set [2], 1.67 ± 0.048 kcal/mol; in data set [3], 3.04 ± 0.041 kcal/mol.

As to “SAGGKKKVKITKITSIDKKNGVITLEIEDPKTKKKYKIKAKVVKLKNGKKLLVIEIEVNGKKIKIVFKSAGG [r13_993_TrROS_Hall]”, the “folding stability dG unfold” value is 3.81 ± 0.47 kcal/mol in data set [1], 2.49 ± 0.15 kcal/mol in data set [2] and 4.23 ± 0.16 kcal/mol in data set [3].

As for “SAGGKKKVTIEIVYDPEEDYVLIRIRIKDPNGNEREITIRMSRDEIKKLLEELKGKITSIEVRRLPPSAGGS [r16_298_TrROS_Hall]”, the “folding stability dG unfold” value in data set [1] worked out at 3.14 ± 0.12 kcal/mol; in data set [2] it was 3.02 ± 0.1 kcal/mol; in data set [3], 3.12 ± 0.059 kcal/mol.

For the sequence “SAGGKKVEILEVSVKPVTLGGKKKYYLNVKVKTPDGKVVNVTMPLEVVKSLGFSIEEFAKAVAKTLLSAGGS [r16_625_TrMRF]”, the results for the “folding stability dG unfold” value in data set [1], in data set [2] and in data set [3] were 3.61 ± 0.055 kcal/mol, 2.96 ± 0.071 kcal/mol and 3.89 ± 0.045 kcal/mol, respectively.

Consider “SAGGKKVIEIEITVKPGETITITVPPGARIEIVDLDTGEVREIEIEPGETITLTLPPGSTLLIRIYEPSAGG [r19_78_TrROS_Hall]”, for which the “folding stability dG unfold” value was found to be 4.01 ± 0.23 kcal/mol in data set [1], 3.66 ± 0.25 kcal/mol in data set [2] and 4.04 ± 0.11 kcal/mol in data set [3].

For “SAGGKKVKVEKVATFELEDGSKITITTVTLPNGEKLVLIEITNPNGEKKTIVVSYEDLKEVLEALKKSAGGS [r16_588_TrROS_Hall]”, the “folding stability dG unfold” value in data set [1] was 2.65 ± 0.28 kcal/mol; in data set [2] it was 2.51 ± 0.086 kcal/mol; in data set [3] it was 2.7 ± 0.16 kcal/mol.
